The record followed here is doi:10.1101/2025.05.09.653011 (bioRxiv, 2025).

The target in assay [1] is Human wild-type peptidylprolyl cis-trans isomerase A (PPIA) (human, UniProt P62937 2-165). Kind of assay: NMR titration.
In assay [2] the target is Human PPIA K76E mutant (human, UniProt P62937 2-165, K76E). The experiment in a line: NMR titration.
Sequence of Human PPIA K76E mutant (P62937 2-165 K76E): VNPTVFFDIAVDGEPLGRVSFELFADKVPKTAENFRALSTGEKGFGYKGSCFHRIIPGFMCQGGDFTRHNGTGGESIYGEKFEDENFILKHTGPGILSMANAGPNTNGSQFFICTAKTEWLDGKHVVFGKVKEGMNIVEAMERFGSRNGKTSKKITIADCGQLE

Sequence of Human wild-type peptidylprolyl cis-trans isomerase A (PPIA) (P62937 2-165): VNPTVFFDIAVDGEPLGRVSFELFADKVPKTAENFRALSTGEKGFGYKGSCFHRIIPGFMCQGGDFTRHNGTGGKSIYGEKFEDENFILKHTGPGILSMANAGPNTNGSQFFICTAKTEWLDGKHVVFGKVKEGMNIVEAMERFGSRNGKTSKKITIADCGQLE

With Ac-FGPDLPAGD-NH2 [Ac-FGPDLPAGD-NH2], the binding result in assay [1] and in assay [2] was “binds” throughout.
